Columns and labels:
[1] = system: PC-3 prostate cancer cell line; assay: MTT Cell Proliferation assay, PC-3 prostate cancer cell line; assay type: cell-based; conditions: PC-3, 10 μg, after 8 days of culture, FIG. 19
Method: (§1) Two groups of proliferation studies were carried out for each antibody. One group was used to study the effect on proliferation by the antibody in presence of endogenous adrenomedullin, while the other group was used to the study the effects of antibody in presence of exogenously added adrenomedullin. Varying concentrations of antibody were prepared in PBS to result in final well concentrations of 10 μg, 1 μg, 100 ng, 10 ng, 1 ng, 100 pg, 10 pg and 1 pg. Six replicates of each concentration of each antibody was carried out. This dose range was used in both groups. Adrenomedullin was added to the appropriate group to a final well concentration of 200 nM. 5-FluoroUracil (Fluka) was used as a positive control (100 mM) for the reduction in proliferation. PBS controls were also prepared. The plates were then incubated under standard conditions. Replacement and re-dosing of antibody and controls was carried out every 2 days. Mouse anti-GST antibody concentration responses were also calculated the similar way since it was the antibody control for the experiment
(§2) In order to check for consistency of the cells seeded, a 12-24 hours study was performed. Further time points were carried out at 2, 4, 6 and 8 days. […] The plate was read for absorbance at 595 nm (Spectramax M5e), using the software Softmax™ Pro 5.2.X 100035.

[2] = system: MDA-MB-436-GFP breast cancer cell line; assay: Apoptosis assay (caspase-3), MDA-MB-436-GFP cells; assay type: cell-based; conditions: 10 μg, FIG. 23
Method: (§3) The apoptosis assay was carried out using the Caspase-3 Assay kit (Sigma).
(§4) 2×10^7 cells wens taken for each treatment. The treatment groups were, antibody treated cells (for each antibody), anti-Fas antibody, antibody and adrenomedullin treated cells, blank and adrenomedullin treated cells. The positive control used was anti-Fas monoclonal antibody (MBL). The final concentration of antibodies used was […] and for anti-Fas antibody was 500 ng.
(§5) The treated cell suspension in 2 ml media were incubated for 3 hours at 37° C. in a 5% CO2 atmosphere.
(§6) The assay buffer and lysis buffer given in the kit was prepared using the given 17 megohm water as per the standard instructions given in the protocol. After 3 hours of incubation, the cells were centrifuged at 600 g for 5 minutes at 4° C. The supernatant was discarded and the cells were resuspended in 1 ml PBS. The cells were once again centrifuged using the above mentioned conditions and the supernatant was discarded. The cell pellet was resuspended in 200 μl 1× lysis buffer and incubated on ice for 20 minutes. The lysed cells were centrifuged at 20,000 g for 15 minutes at 4° C. The cell lysine were then laid out in a 96 well flat bottomed plate as shown in FIG. 6 and incubated overnight. The absorbance was read at 405 nm (Spectramax M5e), using the software Softmax™ Pro 5.2.36.

[3] = system: MDA-MB-436-GFP breast cancer cells; assay: MDA-MB-436-GFP xenograft in CD1 nude mice; assay type: in vivo, CD1 nude (nu/nu) mice; conditions: right flank of CD1 nude mice, 6 weeks
Method: MDA-MB-436-GFP cells were cultured in RPMI media containing penicillin (50 U/ml), streptomycin (50 μg/ml), glutamine (1 mg/ml), and supplemented with 10% fetal bovine serum. Cells were cultured under a humid 5% CO2/95% air atmosphere, and fed with fresh medium every 2 days, being routinely monitored for mycoplasma contamination. Cells growing exponentially were harvested using Trypsin EDAT solution. All culture media components were purchased from Invitrogen Life Technologies
Animal work was performed in the animal facility of the University of Sheffield. Male 4-to-5-week-old CD1 nude (nu/nu) mice were used. Mice were acclimated and housed in sterile cages in groups of four or less under laminar flow hoods in a temperature-controlled room with a 12-hour light/12-hour dark schedule, and fed autoclaved chow and water ad libitum.
CD1 nude (nu/nu) nude mice were implanted with MDA-MB-436-GFP breast cancer cells. For the cell implantations, MDA-MB-436-GFP cells, grown in culture, were washed with PBS, dispersed in a 0.05% solution of trypsin, and resuspended. […] Tumors were measured with a digital venier calliper (Site), and tumour volumes were determined using the formula width×length×height×0.52 (for ellipsoid form), these measurement were taken twice weekly. […]

[4] = system: U-87 glioblastoma cancer cell line; assay: Apoptosis assay (caspase-3), U-87 cells; assay type: cell-based; conditions: U-87, 10 μg; FIG. 22
Method: as §3
U-87 cells were prepared under standard conditions. A cell solution of 2×10^7 cells was made up in 2 ml of media were dispensed into polypropylene tubes.
as §4, §5
as §6, with “The cell lysine were then laid out in a 96 well flat bottomed plate as shown in FIG. 6 and incubated overnight.” left out

[5] = system: MDA-MB-436-GFP breast cancer cell line; assay: MTT Cell Proliferation assay, MDA-MB-436-GFP breast cancer cell line; assay type: cell-based; conditions: after 8 days of culture, FIG. 17
Method: as §1, §2

[6] = system: HCT116 colon cancer cell line; assay: MTT Cell Proliferation assay, HCT116 colon cancer cell line; assay type: cell-based; conditions: HCT116, 10 μg, after 8 days of culture; FIG. 21
Method: as §1, §2

[7] = system: U-87 glioblastoma cell line; assay: MTT Cell Proliferation assay, U-87 glioblastoma cell line; assay type: cell-based; conditions: U-87, 10 μg dose, after 8 days of culture; FIG. 14
Method: The cell culture was carried out under aseptic conditions on Nunclon™ treated tissue culture plastics. The U-87 glioblastoma cells (ATCC noHTB-14) used for this project were cultured in standard EMEM (Earle's Minimum Essential Medium) media (Gibco) with 10% Fetal Calf Serum (Gibco) and 5% Penicillin/Streptomycin antibiotic (Sigma). The frozen cells were thawed at 37° C. for 2 minutes. The cells were then immediately transferred to 75 cm2 flask with 10 ml of media. The culture was incubated at 37° C. with 5% CO2 to attain confluency. The media was changed every three days and the cells were then subcultured after reaching 80-90% confluency. […]
The U87 glioblastoma cells were grown under standard conditions (as mentioned above). The total number of cells were counted using a haemocytometer (Hawksley) and the concentration was calculated using the following equation: […]
Two groups of proliferation studies were carried out for each antibody. […] Mouse anti-GST antibody concentration responses were also calculated the similar way since it was the antibody control for the experiment
In order to check for consistency of the cells seeded, a 12-24 hours study was performed. […] The plate was read for absorbance at 595 nm (Spectramax M5e), using the software Softmax™ Pro 5.2.X 100035.
The proliferation/survival of SW-13 and U87 (Glioblastoma cell line) cells was determined using the MTT assay.

B1: JF2: monoclonal anti-RAMP-3 antibody, IgG, IgG1 subtype (antibody, V domains shown)
VH: QVQLVESGGGVVQPGKSLRLSCAASGFTFSSYGMYWVRQAPGKGLEWVAVISYDGSNKYYADSVKGRFTISRDNSKNTLYLQMNSLRAEDTAVYNCAKEMRYGSGRKAIKYYYGMDVWGQGTTVTVSSASTKGPSVFPLA
VL: DIQMTQSPSSLSASLGERVSLTCRASQDIGSNLNWLQQEPDGTIKRLIYATSSLDSGVPKRFSGSRSGSDYSLTISSLESEDFVDYYCLQYASSPPTFGGGTKLEIKRADAAPTVSIFPPSSKLG
reduction in proliferation ([1]; in the absence of exogenously added adrenomedullin): 22%
reduction in proliferation ([1]; in the presence of adrenomedullin): 37%
levels of caspase-3 (apoptosis), significance [2]: only antibody JB3 showed a significant increased
tumour volume ([3]; versus control groups, FIG. 24): rates of growth within the treatment groups are considerably slower
tumour weights ([3]; calculated back using the volumes of tumours, FIG. 25): still remain below control groups
increase levels of caspase-3 [4]: 26%
reduction in proliferation ([5]; 10 μg (greatest reduction)): 12%
reduction in proliferation compared to controls ([5]; doses 1 μg and 10 μg): significant reduction in proliferation
reduction in proliferation compared to controls [6]: no statistically significant reduction in proliferation
reduction in proliferation [7]: 40%

From US8389237B2, “Antibodies against RAMP3” (Medella Therapeutics Limited, priority 2007, dated 2013)
